Here are results for ten substances from paper PMC6793842.

pKd: −log10 of the molar value.

Holding throughout (test): SPR
In experiment [1] the target is gorilla basigin, entire ectodomain (gorilla).
Experiment [2] concerns the target human basigin, entire ectodomain (human) (UniProt P35613).
Experiment [3] concerns the target chimpanzee basigin, entire ectodomain (chimpanzee).
Experiment [4] deals with gorilla basigin, entire ectodomain. To be noted: read off a plot; for other: t1/2 (interaction half-life): parent: est. 1.9 s; for response (response units): plateau of the highest curve of four 2-fold serial dilutions (600 to 75 nM), parent: est. 92.

By pKd is commonly meant the negative decadic logarithm of the Kd, by convention in mol/L.

Chain of human basigin, entire ectodomain (human) (P35613 138-325): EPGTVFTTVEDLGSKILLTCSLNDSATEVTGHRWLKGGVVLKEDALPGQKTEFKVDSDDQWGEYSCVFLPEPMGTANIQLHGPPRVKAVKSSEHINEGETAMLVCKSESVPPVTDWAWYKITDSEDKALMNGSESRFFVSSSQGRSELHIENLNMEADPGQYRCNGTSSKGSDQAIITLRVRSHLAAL

In the case of P. adleri RH5 (ligand), the pKd was 6.00 in experiment [1] and 5.51 in experiment [2].

Take P. billcollinsi RH5 (ligand): in experiment [3], the pKd was 5.74. The substance P. gaboni RH5 (ligand) gave a pKd in experiment [2] of 5.44.

For the substance P. praefalciparum RH5 (ligand), the values for the pKd in experiment [1] and in experiment [2] were 5.60 and 5.72, respectively. As for “introgressed ancestral RH5 (reticulocyte-binding protein homologue 5) (from UniProt Q8IFM5) D148H”, in experiment [4], the other: t1/2 (interaction half-life) turned out to be 2.5 s and the response (response units) came out at 190. For “introgressed ancestral RH5 (reticulocyte-binding protein homologue 5) (from UniProt Q8IFM5) H200Y”, in experiment [4], the response (response units) worked out at 26.

As to “introgressed ancestral RH5 (reticulocyte-binding protein homologue 5) (from UniProt Q8IFM5) Q219K”, in experiment [4], the other: t1/2 (interaction half-life) was determined as 2.2 s and the response (response units) was 310. On to “introgressed ancestral RH5 (reticulocyte-binding protein homologue 5) (from UniProt Q8IFM5) R216T”, for which, in experiment [4], the other: t1/2 (interaction half-life) was determined as 2.3 s and the response (response units) came to 130.

For the substance “introgressed ancestral RH5 (reticulocyte-binding protein homologue 5) (from UniProt Q8IFM5) Y197S”, in experiment [4], the other: t1/2 (interaction half-life) turned out to be 1.9 s and the response (response units) stood at 210. For the substance “introgressed ancestral RH5 (reticulocyte-binding protein homologue 5) (from UniProt Q8IFM5) Y203C”, in experiment [4], the other: t1/2 (interaction half-life) came out at 1.2 s and the response (response units) stood at 120.
